Data as given in patent US20120172293A1 (Takeda / Millennium, published 2012).
Non-standard residues stand in square brackets, D forms with d. No end group written: not given here. Phe(4-NH2) = Nc1ccc(C[C@H](N)C(=O)O)cc1; 1Nal = N[C@@H](Cc1cccc2ccccc12)C(=O)O; Arg(Me) = CNC(=N)NCCC[C@H](N)C(=O)O; Ala(cPr) = N[C@@H](CC1CC1)C(=O)O; 4Pal = N[C@@H](Cc1ccncc1)C(=O)O; 4Amb = NCc1ccc(C(=O)O)cc1; Nle = CCCC[C@H](N)C(=O)O; Aib = CC(C)(N)C(=O)O

B1: 4-Aminomethylbenzoyl-[Ala26, Ile28,31, Nal(1)30]-PYY(25-36) (peptide)
peptide: [4Amb]RAYIN[1Nal]ITRQRY-NH2
modifications: N-terminus assumed
SMILES: CC[C@H](C)[C@H](NC(=O)[C@H](Cc1ccc(O)cc1)NC(=O)[C@H](C)NC(=O)[C@H](CCCNC(=N)N)NC(=O)c1ccc(CN)cc1)C(=O)N[C@@H](CC(N)=O)C(=O)N[C@@H](Cc1cccc2ccccc12)C(=O)N[C@H](C(=O)N[C@H](C(=O)N[C@@H](CCCNC(=N)N)C(=O)N[C@@H](CCC(N)=O)C(=O)N[C@@H](CCCNC(=N)N)C(=O)N[C@@H](Cc1ccc(O)cc1)C(N)=O)[C@@H](C)O)[C@@H](C)CC
notes: also called compound No. 55
B2: 4-Aminomethylbenzoyl-[Ala(cPr)26, Ile28,32]-PYY(25-36) (peptide)
peptide: [4Amb]R[Ala(cPr)]YINLITRQRY-NH2
modifications: N-terminus assumed
SMILES: CC[C@H](C)[C@H](NC(=O)[C@H](Cc1ccc(O)cc1)NC(=O)[C@H](CC1CC1)NC(=O)[C@H](CCCNC(=N)N)NC(=O)c1ccc(CN)cc1)C(=O)N[C@@H](CC(N)=O)C(=O)N[C@@H](CC(C)C)C(=O)N[C@H](C(=O)N[C@H](C(=O)N[C@@H](CCCNC(=N)N)C(=O)N[C@@H](CCC(N)=O)C(=O)N[C@@H](CCCNC(=N)N)C(=O)N[C@@H](Cc1ccc(O)cc1)C(N)=O)[C@@H](C)O)[C@@H](C)CC
notes: name prints Ile28,32; also called compound No. 48
B3: [D-Ala22, Ala26, Ile28,31, Arg(Me)35]-PYY(22-36) (peptide)
peptide: [dA]SLRAYINLITRQ[Arg(Me)]Y-NH2
modifications: N-terminus assumed
SMILES: CC[C@H](C)[C@H](NC(=O)[C@H](Cc1ccc(O)cc1)NC(=O)[C@H](C)NC(=O)[C@H](CCCNC(=N)N)NC(=O)[C@H](CC(C)C)NC(=O)[C@H](CO)NC(=O)[C@@H](C)N)C(=O)N[C@@H](CC(N)=O)C(=O)N[C@@H](CC(C)C)C(=O)N[C@H](C(=O)N[C@H](C(=O)N[C@@H](CCCNC(=N)N)C(=O)N[C@@H](CCC(N)=O)C(=O)N[C@@H](CCCNC(=N)NC)C(=O)N[C@@H](Cc1ccc(O)cc1)C(N)=O)[C@@H](C)O)[C@@H](C)CC
notes: also called compound No. 3
B4: 4-Aminomethylbenzoyl-[Ala26, Ile28,31, Aib30]-PYY(25-36) (peptide)
peptide: [4Amb]RAYIN[Aib]ITRQRY-NH2
modifications: N-terminus assumed
SMILES: CC[C@H](C)[C@H](NC(=O)[C@H](Cc1ccc(O)cc1)NC(=O)[C@H](C)NC(=O)[C@H](CCCNC(=N)N)NC(=O)c1ccc(CN)cc1)C(=O)N[C@@H](CC(N)=O)C(=O)NC(C)(C)C(=O)N[C@H](C(=O)N[C@H](C(=O)N[C@@H](CCCNC(=N)N)C(=O)N[C@@H](CCC(N)=O)C(=O)N[C@@H](CCCNC(=N)N)C(=O)N[C@@H](Cc1ccc(O)cc1)C(N)=O)[C@@H](C)O)[C@@H](C)CC
notes: also called compound No. 47
B5: 4-Aminomethylbenzoyl-[Ala26, Nle27, Ile28,31]-PYY(25-36) (peptide)
peptide: [4Amb]RA[Nle]INLITRQRY-NH2
modifications: N-terminus assumed
SMILES: CCCC[C@H](NC(=O)[C@H](C)NC(=O)[C@H](CCCNC(=N)N)NC(=O)c1ccc(CN)cc1)C(=O)N[C@H](C(=O)N[C@@H](CC(N)=O)C(=O)N[C@@H](CC(C)C)C(=O)N[C@H](C(=O)N[C@H](C(=O)N[C@@H](CCCNC(=N)N)C(=O)N[C@@H](CCC(N)=O)C(=O)N[C@@H](CCCNC(=N)N)C(=O)N[C@@H](Cc1ccc(O)cc1)C(N)=O)[C@@H](C)O)[C@@H](C)CC)[C@@H](C)CC
notes: also called compound No. 43
B6: 4-Aminomethylbenzoyl-[Lys25, Ala26, Ile28,31]-PYY(25-36) (peptide)
peptide: [4Amb]KAYINLITRQRY-NH2
modifications: N-terminus assumed
SMILES: CC[C@H](C)[C@H](NC(=O)[C@H](Cc1ccc(O)cc1)NC(=O)[C@H](C)NC(=O)[C@H](CCCCN)NC(=O)c1ccc(CN)cc1)C(=O)N[C@@H](CC(N)=O)C(=O)N[C@@H](CC(C)C)C(=O)N[C@H](C(=O)N[C@H](C(=O)N[C@@H](CCCNC(=N)N)C(=O)N[C@@H](CCC(N)=O)C(=O)N[C@@H](CCCNC(=N)N)C(=O)N[C@@H](Cc1ccc(O)cc1)C(N)=O)[C@@H](C)O)[C@@H](C)CC
notes: also called compound No. 49
B7: 4-Aminomethylbenzoyl-[Ala26, Pya(4)27, Ile28,31]-PYY(25-36) (peptide)
peptide: [4Amb]RA[4Pal]INLITRQRY-NH2
modifications: N-terminus assumed
SMILES: CC[C@H](C)[C@H](NC(=O)[C@H](Cc1ccncc1)NC(=O)[C@H](C)NC(=O)[C@H](CCCNC(=N)N)NC(=O)c1ccc(CN)cc1)C(=O)N[C@@H](CC(N)=O)C(=O)N[C@@H](CC(C)C)C(=O)N[C@H](C(=O)N[C@H](C(=O)N[C@@H](CCCNC(=N)N)C(=O)N[C@@H](CCC(N)=O)C(=O)N[C@@H](CCCNC(=N)N)C(=O)N[C@@H](Cc1ccc(O)cc1)C(N)=O)[C@@H](C)O)[C@@H](C)CC
notes: also called compound No. 44
B8: 4-Aminomethylbenzoyl-[Ala26, Ile28,31, Aib29]-PYY(25-36) (peptide)
peptide: [4Amb]RAYI[Aib]LITRQRY-NH2
modifications: N-terminus assumed
SMILES: CC[C@H](C)[C@H](NC(=O)[C@H](CC(C)C)NC(=O)C(C)(C)NC(=O)[C@@H](NC(=O)[C@H](Cc1ccc(O)cc1)NC(=O)[C@H](C)NC(=O)[C@H](CCCNC(=N)N)NC(=O)c1ccc(CN)cc1)[C@@H](C)CC)C(=O)N[C@H](C(=O)N[C@@H](CCCNC(=N)N)C(=O)N[C@@H](CCC(N)=O)C(=O)N[C@@H](CCCNC(=N)N)C(=O)N[C@@H](Cc1ccc(O)cc1)C(N)=O)[C@@H](C)O
notes: also called compound No. 46
B9: 4-Aminomethylbenzoyl-[Ala26, Phe(4NH2)27, Ile28,31]-PYY(25-36) (peptide)
peptide: [4Amb]RA[Phe(4-NH2)]INLITRQRY-NH2
modifications: N-terminus assumed
SMILES: CC[C@H](C)[C@H](NC(=O)[C@H](Cc1ccc(N)cc1)NC(=O)[C@H](C)NC(=O)[C@H](CCCNC(=N)N)NC(=O)c1ccc(CN)cc1)C(=O)N[C@@H](CC(N)=O)C(=O)N[C@@H](CC(C)C)C(=O)N[C@H](C(=O)N[C@H](C(=O)N[C@@H](CCCNC(=N)N)C(=O)N[C@@H](CCC(N)=O)C(=O)N[C@@H](CCCNC(=N)N)C(=O)N[C@@H](Cc1ccc(O)cc1)C(N)=O)[C@@H](C)O)[C@@H](C)CC
notes: also called compound No. 52
B10: 4-Aminomethylbenzoyl-[Ala26, Aib27, Ile28,31]-PYY(25-36) (peptide)
peptide: [4Amb]RA[Aib]INLITRQRY-NH2
modifications: N-terminus assumed
SMILES: CC[C@H](C)[C@H](NC(=O)[C@H](CC(C)C)NC(=O)[C@H](CC(N)=O)NC(=O)[C@@H](NC(=O)C(C)(C)NC(=O)[C@H](C)NC(=O)[C@H](CCCNC(=N)N)NC(=O)c1ccc(CN)cc1)[C@@H](C)CC)C(=O)N[C@H](C(=O)N[C@@H](CCCNC(=N)N)C(=O)N[C@@H](CCC(N)=O)C(=O)N[C@@H](CCCNC(=N)N)C(=O)N[C@@H](Cc1ccc(O)cc1)C(N)=O)[C@@H](C)O
notes: also called compound No. 53

biological target: T1, human Y2 receptor (human, UniProt P49146 1-381); assay: cell-based or functional assay
T1 sequence (looked up): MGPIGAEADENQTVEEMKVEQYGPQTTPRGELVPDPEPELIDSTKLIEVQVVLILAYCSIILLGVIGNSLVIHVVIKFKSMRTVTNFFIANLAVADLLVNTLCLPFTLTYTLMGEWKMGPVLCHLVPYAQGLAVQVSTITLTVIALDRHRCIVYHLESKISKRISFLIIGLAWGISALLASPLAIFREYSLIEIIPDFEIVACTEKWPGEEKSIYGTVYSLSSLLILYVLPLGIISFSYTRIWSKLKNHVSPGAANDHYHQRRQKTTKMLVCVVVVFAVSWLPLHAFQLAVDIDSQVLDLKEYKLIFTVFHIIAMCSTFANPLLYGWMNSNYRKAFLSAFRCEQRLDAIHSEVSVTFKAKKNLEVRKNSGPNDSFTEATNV

Row | Binder | GBA EC50 Ratio (vs PYY(3-36)), [35S]GTPγS
1 | B1 | 3 ratio
2 | B2 | 4.1 ratio
3 | B3 | 2.7 ratio
4 | B4 | 23 ratio
5 | B5 | 2.3 ratio
6 | B6 | 24 ratio
7 | B7 | 2.6 ratio
8 | B8 | 34 ratio
9 | B9 | 5.7 ratio
10 | B10 | 7.5 ratio

biological target: T1, human Y2 receptor; assay: RBA: [125I]-PYY displacement, hY2R/CHO membranes
How it was run: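 Bound radioligand was collected by filtration on PEI-treated GF/C filters, washed with Tris/MgCl₂/NaCl/CHAPS buffer pH 7.4, and counted by scintillation; IC₅₀ values were calculated.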

Row | Binder | IC50 Ratio (vs PYY(3-36))
11 | B1 | 3.4 ratio
12 | B2 | 8.1 ratio
13 | B3 | 6 ratio
14 | B4 | 49 ratio
15 | B5 | 4.6 ratio
16 | B6 | 34 ratio
17 | B7 | 3.8 ratio
18 | B8 | 87 ratio
19 | B9 | 11 ratio
20 | B10 | 18 ratio
